Reference: patent publication US20220403001A1, “PDE5 DERIVED REGULATORY CONSTRUCTS AND METHODS OF USE IN IMMUNOTHERAPY” (Obsidian Therapeutics, Inc., priority 2018, published 2022)

Key:
[1] = biological target: hPDE5 mutants (Homo sapiens, UniProt O76074); test: GFP FACS analysis of hPDE5 mutant library clones in NIH3T3 cell pools; conditions: for MFI 10 μM VDF / MFI DMSO: GFP, NIH3T3 cell pools; for MFI 10 μM VDF: 10 μM vardenafil 24 hr; for MFI DMSO: no ligand (DMSO); for Fluorescence intensity Sildenafil / Fluorescence intensity Tadalafil / Fluorescence intensity Vardenafil / Fluorescence intensity DMSO: median GFP fluorescence by FACS, direct comparison of clones; for Fluorescence intensity Sildenafil: 10 μM Sildenafil; for Fluorescence intensity Tadalafil: 10 μM Tadalafil; for Fluorescence intensity Vardenafil: 10 μM Vardenafil; for Fluorescence intensity DMSO: vehicle DMSO (no ligand)
Experimental: (§1) These constructs were packaged into lentivirus, transduced into NIH3T3 cells and select stable cell pools were derived as described below. […] Lentiviral stocks were used for transduction of NIH3T3 cells and subsequent cell pool selection. The day before transduction, NIH3T3 cells (1.8×10^6) were seeded in a T-25 flask and allowed to reach 60-70% confluency (˜1 day). The growth medium in the T-25 flask was then replaced with 1 mL virus (quickly thawed in a 37° C. water bath) and 5 μg/mL polybrene. […] Transduction medium was removed the following day and replaced with 5 mL fresh medium. At 48 hr after transduction, the medium was replaced with media containing 1 μg/mL puromycin. This puromycin medium was replaced every 3-4 days until cell pools were established (˜2 weeks).
(§2) The mean fluorescence intensity (MFI) of GFP at 100 μM concentration treatment was set as 100% hPDE5 stabilization effect (HPE), while DMSO treatment was set as 0% effect (ZPE) of hPDE5 stabilization. The effect of the compound on hPDE5 stabilization was calculated based on the following formula: % PDE5 stabilization effect=(MFI-ZPE)/(HPE-ZPE)×100.
(§3) Plots of the % effect versus concentration were generated with Graphpad Prism 5 and EC50 values were calculated using a four-parameter nonlinear regression model.
(§4) Select PDE5 clones from both experiment 1 and experiment 2 were directly compared. […] The stabilization ratio was calculated as the fold change in GFP intensity in ligand treated samples compared to treatment with DMSO (i.e. in the absence of ligand) with the same construct.

[2] = system: hPDE5 mutants; test: as above; conditions: experiment 1
Experimental: as §1, §2, §3, §4

Substance | MFI 10 μM VDF ([1]; experiment 1) | MFI DMSO ([1]; experiment 1) | GFP FACS analysis (MFI) ([1]; SDF 3.704 μM, experiment 1) | GFP FACS analysis (MFI) ([1]; SDF 11.111 μM, experiment 1) | GFP FACS analysis (MFI) ([1]; SDF 33.333 μM, experiment 1) | GFP FACS analysis (MFI) ([1]; SDF 100 μM, experiment 1) | GFP FACS analysis (MFI) ([1]; TDF 3.704 μM, experiment 1) | GFP FACS analysis (MFI) ([1]; TDF 11.111 μM, experiment 1) | GFP FACS analysis (MFI) ([1]; TDF 33.333 μM, experiment 1) | GFP FACS analysis (MFI) ([1]; TDF 100 μM, experiment 1) | GFP FACS analysis (MFI) ([1]; VDF 1.235 μM, experiment 1) | GFP FACS analysis (MFI) ([1]; VDF 3.704 μM, experiment 1) | GFP FACS analysis (MFI) ([1]; VDF 11.111 μM, experiment 1) | GFP FACS analysis (MFI) ([1]; VDF 33.333 μM, experiment 1) | GFP FACS analysis (MFI) ([1]; VDF 100 μM, experiment 1) | GFP FACS analysis (MFI) ([2]; DMSO (no ligand), SDF series) | GFP FACS analysis (MFI) ([2]; DMSO (no ligand), TDF series) | GFP FACS analysis (MFI) ([2]; DMSO (no ligand), VDF series) | GFP FACS analysis (MFI) ([2]; SDF 1.235 μM) | GFP FACS analysis (MFI) ([2]; TDF 1.235 μM) | further results
LibC000005: hPDE5 (Amino acid 535-860 of WT, I556S, E796D), DD generated by random mutagenesis | 2081 | 271 | 518 | 577 | 734 | 1136 | 453 | 551 | 711 | 814 | 1044 | 1968 | 3066 | 3892 | 4240 | 335 | 366 | 376 | 479 | 418 | Fluorescence intensity Sildenafil [1]: 1136; Fluorescence intensity Tadalafil [1]: 814; Fluorescence intensity Vardenafil [1]: 4240; Fluorescence intensity DMSO [1]: 359; Percent stabilization effect ([2]; SDF 1.235 μM): 18.0%; Percent stabilization effect ([2]; SDF 3.704 μM): 22.8%; Percent stabilization effect ([2]; SDF 11.111 μM): 30.2%; Percent stabilization effect ([2]; SDF 33.333 μM): 49.8%; Percent stabilization effect ([2]; SDF 100 μM (set as 100%)): 100.0%; Percent stabilization effect ([2]; TDF 1.235 μM): 11.6%; Percent stabilization effect ([2]; TDF 3.704 μM): 19.4%; Percent stabilization effect ([2]; TDF 11.111 μM): 41.3%; Percent stabilization effect ([2]; TDF 33.333 μM): 77.0%; Percent stabilization effect ([2]; TDF 100 μM (set as 100%)): 100.0%; Percent stabilization effect ([2]; VDF 1.235 μM): 17.3%; Percent stabilization effect ([2]; VDF 3.704 μM): 41.2%; Percent stabilization effect ([2]; VDF 11.111 μM): 69.6%; Percent stabilization effect ([2]; VDF 33.333 μM): 91.0%; Percent stabilization effect ([2]; VDF 100 μM (set as 100%)): 100.0%
LibC000013: hPDE5 (Amino acid 535-860 of WT, L781P), DD generated by random mutagenesis | 723 | 498 | 3467 | 5539 | 7404 | 8260 | 6275 | 8085 | 8353 | 7614 | 6773 | 7330 | 7393 | 7308 | 7207 | 943 | 847 | 854 | 2076 | 3688 | Stabilization ratio ([1]; GFP intensity 10 μM vardenafil vs DMSO, experiment 1): 1.5; Destabilizing mutation co-efficient ([1]; GFP intensity mutant vs PDE5 wildtype construct in absence of ligand, experiment 1): 0.09
LibC000015: hPDE5 (Amino acid 535-860 of WT, T571S, V585M, T723S), DD generated by random mutagenesis | 1951 | 174 | 331 | 357 | 432 | 630 | 326 | 374 | 463 | 518 | 756 | 1383 | 2315 | 3166 | 3069 | 301 | 306 | 373 | 320 | 311 | Percent stabilization effect ([2]; SDF 1.235 μM): 5.8%; Percent stabilization effect ([2]; SDF 3.704 μM): 9.1%; Percent stabilization effect ([2]; SDF 11.111 μM): 17.0%; Percent stabilization effect ([2]; SDF 33.333 μM): 39.8%; Percent stabilization effect ([2]; SDF 100 μM (set as 100%)): 100.0%; Percent stabilization effect ([2]; TDF 1.235 μM): 2.4%; Percent stabilization effect ([2]; TDF 3.704 μM): 9.4%; Percent stabilization effect ([2]; TDF 11.111 μM): 32.1%; Percent stabilization effect ([2]; TDF 33.333 μM): 74.1%; Percent stabilization effect ([2]; TDF 100 μM (set as 100%)): 100.0%; Percent stabilization effect ([2]; VDF 1.235 μM): 14.2%; Percent stabilization effect ([2]; VDF 3.704 μM): 37.5%; Percent stabilization effect ([2]; VDF 11.111 μM): 72.0%; Percent stabilization effect ([2]; VDF 33.333 μM): 103.6%; Percent stabilization effect ([2]; VDF 100 μM (set as 100%)): 100.0%
LibC000020: hPDE5 (Amino acid 535-860 of WT, A722V, F755L, M760I), DD generated by random mutagenesis | 1459 | 332 | 376 | 373 | 407 | 513 | 342 | 371 | 440 | 509 | 399 | 733 | 1395 | 2144 | 2499 | 338 | 243 | 238 | 371 | 337 | Fluorescence intensity Sildenafil [1]: 513; Fluorescence intensity Tadalafil [1]: 509; Fluorescence intensity Vardenafil [1]: 2499; Fluorescence intensity DMSO [1]: 273; Percent stabilization effect ([2]; SDF 1.235 μM): 18.9%; Percent stabilization effect ([2]; SDF 3.704 μM): 21.7%; Percent stabilization effect ([2]; SDF 11.111 μM): 20.0%; Percent stabilization effect ([2]; SDF 33.333 μM): 39.4%; Percent stabilization effect ([2]; SDF 100 μM (set as 100%)): 100.0%; Percent stabilization effect ([2]; TDF 1.235 μM): 35.3%; Percent stabilization effect ([2]; TDF 3.704 μM): 37.2%; Percent stabilization effect ([2]; TDF 11.111 μM): 48.1%; Percent stabilization effect ([2]; TDF 33.333 μM): 74.1%; Percent stabilization effect ([2]; TDF 100 μM (set as 100%)): 100.0%; Percent stabilization effect ([2]; VDF 1.235 μM): 7.1%; Percent stabilization effect ([2]; VDF 3.704 μM): 21.9%; Percent stabilization effect ([2]; VDF 11.111 μM): 51.2%; Percent stabilization effect ([2]; VDF 33.333 μM): 84.3%; Percent stabilization effect ([2]; VDF 100 μM (set as 100%)): 100.0%
